Results: patent US20210122824A1 (ADAGENE, published 2021)
Where a chain is given by its changes, count along the chain named.

B1: B15016 (Fab, V domains shown)
VH: EVQLVESGGGLVQPGGSLRLSCAASGYSISSGYYWGWIRQAPGKGLEWIGIIYPSGGGTNYAQKFQGRVTISRDNSKNTLYLQLNSLRAEDTAVYYCARGGGLGFDYWGQGTLVTVSS
VL: DIQLTQSPSSLSASVGDRVTITCRASQTIPSFLNWYQQKPGKAPKLLIYAASSLQSGVPSRFSGSGSGTDFTLTISSLQPEDFATYYCQHYTSWPRQFTFGQGTKVEIKR
notes: Fab from E. coli
B2: B15041 (Fab, V domains shown)
VH: B1 VH
VL: B1 VL with T28S, T92I
notes: Fab from E. coli
B3: B15074 (Fab, V domains shown)
VH: B1 VH
VL: B1 VL with S53T, T92I, Q97V
notes: Fab from E. coli
B4: B14032 (Fab, V domains shown)
VH: B1 VH
VL: B1 VL with R24Q, T28D, S31T, N34A, H90Q, T92V, Q97G
notes: Fab from E. coli
B5: B15012 (Fab, V domains shown)
VH: B1 VH
VL: B1 VL with S53T, T92S, Q97G
notes: Fab from E. coli
B6: B15082 (Fab, V domains shown)
VH: B1 VH
VL: B1 VL with T92G, Q97R
notes: Fab from E. coli
B7: B15022 (Fab, V domains shown)
VH: B1 VH
VL: B1 VL with T28S, S53T, H90Q, T92S, Q97L
notes: Fab from E. coli
B8: B15024 (Fab, V domains shown)
VH: B1 VH
VL: B1 VL with T28S, S31T, S53T, T92V, Q97L
notes: Fab from E. coli
B9: B15014 (Fab, V domains shown)
VH: B1 VH
VL: B1 VL with T28D, S31K, N34A, S53T, T92V
notes: Fab from E. coli
B10: B13002 (Fab, V domains shown)
VH: EVQLVESGGGLVQPGGSLRLSCAASGYTFSNYGIHWVRQAPGKGLEWIGWIYPSGGGTKYAQKFQGRVTISRDNSKNTLYLQLNSLRAEDTAVYYCAREGGGYGYALDYWGQGTLVTVSS
VL: DIQLTQSPSSLSASVGDRVTITCRASQGVSSYLAWYQQKPGKAPKLLIYDASNLETGVPSRFSGSGSGTDFTLTISSLQPEDFATYYCQQYDAWPYTFGQGTKVEIKR
notes: Fab from E. coli
B11: B14622 (Fab, V domains shown)
VH: B10 VH
VL: DIQLTQSPSSLSASVGDRVTITCRASQSVDFYGKSFLDWYQQKPGKAPKLLIYDASNRATGIPSRFSGSGSGTDFTLTISSLQPEDFATYYCQQYDSWPYTFGQGTKVEIKR
notes: Fab from E. coli
B12: B14638 (Fab, V domains shown)
VH: B10 VH
VL: DIQLTQSPSSLSASVGDRVTITCRASQSVGSIYLGWYQQKPGKAPKLLIYDASNRATGIPSRFSGSGSGTDFTLTISSLQPEDFATYYCQQYDSWPYTFGQGTKVEIKR
notes: Fab from E. coli
B13: B14652 (Fab, V domains shown)
VH: B10 VH
VL: B10 VL with S31P, Y32W, N53S, T56S
notes: Fab from E. coli
B14: B14642 (Fab, V domains shown)
VH: B10 VH
VL: B11 VL with D38A, N57S, R58L, A59E, T60S, I62V, S97A
notes: Fab from E. coli
B15: B14658 (Fab, V domains shown)
VH: B10 VH
VL: B11 VL with Y32H
notes: Fab from E. coli
B16: B14634 (Fab, V domains shown)
VH: B10 VH
VL: B10 VL with G28S, S31P
notes: Fab from E. coli
B17: B14614 (Fab, V domains shown)
VH: B10 VH
VL: B11 VL with Q27E
notes: Fab from E. coli
B18: B14674 (Fab, V domains shown)
VH: B10 VH
VL: B10 VL with G28S, V29I, S30E, S31K, Y32W, N53S, T56S
notes: Fab from E. coli
B19: B13004 (Fab, V domains shown)
VH: B10 VH
VL: B10 VL with V29I, S31P, Y32W, L54R, E55A, V58I, A93S
notes: Fab from E. coli
B20: B14673 (Fab, V domains shown)
VH: B10 VH
VL: B11 VL with Q27E, D38A, N57S, R58L, A59E, T60S, I62V
notes: Fab from E. coli
B21: B14033 (Fab, V domains shown)
VH: B10 VH
VL: B10 VL with V29I, S30G, Y32F, N53S, T56S, A93Y
notes: Fab from E. coli
B22: B14690 (Fab, V domains shown)
VH: B10 VH
VL: B11 VL with Y32H, K34I, R58L, A59E, I62V
notes: Fab from E. coli
B23: B14615 (Fab, V domains shown)
VH: B10 VH
VL: B11 VL with D38A, N57S, R58L, A59E, T60S, I62V, S97H
notes: Fab from E. coli
B24: B14650 (Fab, V domains shown)
VH: B10 VH
VL: B11 VL with Q27E, S97H
notes: Fab from E. coli
B25: B14633 (Fab, V domains shown)
VH: B10 VH
VL: B11 VL with Q27E, Y32H, K34I, D38A, S97H
notes: Fab from E. coli
B26: B14644 (Fab, V domains shown)
VH: B10 VH
VL: B11 VL with Q27E, D38A, S97Y
notes: Fab from E. coli
B27: B14627 (Fab, V domains shown)
VH: B10 VH
VL: B10 VL with G28S, Y32W, N53S, T56S, A93S
notes: Fab from E. coli
B28: B14631 (Fab, V domains shown)
VH: B10 VH
VL: B11 VL with Q27E, Y32F, D38A, R58L, A59E, I62V, S97H
notes: Fab from E. coli
B29: B14645 (Fab, V domains shown)
VH: B10 VH
VL: B11 VL with R58L, A59E, I62V, S97A
notes: Fab from E. coli
B30: B14681 (Fab, V domains shown)
VH: B10 VH
VL: B11 VL with Y32H, K34I, S97H
notes: Fab from E. coli
B31: B14617 (Fab, V domains shown)
VH: B10 VH
VL: B11 VL with Q27E, Y32F, D38A, N57S, R58L, A59E, T60S, I62V
notes: Fab from E. coli
B32: B13005 (Fab, V domains shown)
VH: B10 VH
VL: B10 VL with G28S
notes: Fab from E. coli
B33: B14654 (Fab, V domains shown)
VH: B10 VH
VL: B10 VL with G28S, S31P, L54R, E55A, V58I
notes: Fab from E. coli
B34: B14689 (Fab, V domains shown)
VH: B10 VH
VL: B11 VL with N57S, R58L, A59E, T60S, I62V, S97H
notes: Fab from E. coli
B35: B14651 (Fab, V domains shown)
VH: B10 VH
VL: B11 VL with Q27E, Y32H, D38A, S97H
notes: Fab from E. coli
B36: B14665 (Fab, V domains shown)
VH: B10 VH
VL: B11 VL with D38A, N57S, R58L, A59E, T60S, I62V
notes: Fab from E. coli

Legend:
[1] = target: T1, mouse PD-L1-Fc fusion protein (mouse, UniProt Q9EP73 19-238, limits assumed); assay: BLI (ForteBio), PD-L1 on AHC sensor, Fab in solution
T1 construct: not shown: Fc part

[2] = target: T2, human PD-L1-Fc fusion protein (Sino Biological Cat #10084-H02H) (human, UniProt Q9NZQ7 19-239); assay: BLI (ForteBio), PD-L1-Fc on AHC sensor, Fab in solution
T2 construct: bought; not shown: Fc part of the bought fusion
T2 sequence (Q9NZQ7 19-239 limits assumed): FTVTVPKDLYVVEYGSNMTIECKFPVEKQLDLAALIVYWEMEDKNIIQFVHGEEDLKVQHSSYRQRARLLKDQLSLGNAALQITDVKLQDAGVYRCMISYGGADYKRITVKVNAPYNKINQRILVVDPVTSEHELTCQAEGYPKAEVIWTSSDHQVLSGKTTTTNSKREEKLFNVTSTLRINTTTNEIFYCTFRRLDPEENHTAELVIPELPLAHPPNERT

T1 sequence (Q9EP73 19-238 limits assumed): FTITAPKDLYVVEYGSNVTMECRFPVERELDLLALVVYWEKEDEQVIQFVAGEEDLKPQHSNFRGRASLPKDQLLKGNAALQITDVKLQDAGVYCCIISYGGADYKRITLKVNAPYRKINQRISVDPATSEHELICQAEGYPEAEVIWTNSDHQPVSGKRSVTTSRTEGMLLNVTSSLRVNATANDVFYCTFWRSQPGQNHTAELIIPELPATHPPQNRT

Binder	Kd [1]	Kd [2]
B1	2.84 nM	3.56 nM
B2	1.67 nM	1.68 nM
B3	2.98 nM	4.31 nM
B4	4.84 nM	5.11 nM
B5	2.03 nM	1.76 nM
B6	3.23 nM	4.79 nM
B7	3.03 nM	3.68 nM
B8	3.48 nM	4.52 nM
B9	3.87 nM	2.43 nM
B10	–	0.251 nM
B11	–	0.274 nM
B12	–	0.314 nM
B13	–	0.294 nM
B14	–	0.189 nM
B15	–	0.142 nM
B16	–	0.207 nM
B17	–	0.353 nM
B18	–	0.502 nM

Binder	Kd [1]	Kd [2]
B19	–	0.3 nM
B20	–	0.323 nM
B21	–	0.875 nM
B22	–	0.467 nM
B23	–	0.228 nM
B24	–	0.357 nM
B25	–	0.322 nM
B26	–	0.248 nM
B27	–	0.182 nM
B28	–	0.183 nM
B29	–	0.296 nM
B30	–	0.543 nM
B31	–	0.288 nM
B32	–	0.346 nM
B33	–	0.232 nM
B34	–	0.163 nM
B35	–	0.301 nM
B36	–	0.369 nM
